We go through 1 protein from paper doi:10.1101/2021.11.02.467024 (bioRxiv, 2021).

This data set concerns the molecule itself. As to the kind of experiment: cross-linking.

B1: IMPDH1 (enzyme)
chain: not shown
Consider B1, for which the “stoichiometry N” value was determined as 4.

Usually stoichiometry N stands for a count of units in the complex or per binding partner.
